Measurements: patent US9492315B2, “Implantable therapeutic device” (ForSight Vision4, Inc., priority 2010, dated 2016)
Like-named read-outs stand apart in the source and are kept apart here.

What was measured:
[1] = rabbit and monkey (Gaudreault et al.), cited from earlier work
[2] = test system: Grade IV choroidal neovascularization (CNV) lesions; conditions: intravitreal injection, all doses tested, cynomolgus monkeys, laser photocoagulation model; cited from earlier work
[3] = humans (Lucentis package insert); cited from earlier work
[4] = Determined concentration profiles of Lucentis/ranibizumab in the vitreous humor for injections into the device or bolus (FIGS. 19B-19T, 32A-32E, 37); parameters: species or system human; conditions: parameter used for FIGS. 19K to 19P, half-life 9 days
From the text: The therapeutic device 100 can be tuned to deliver a target therapeutic concentration profile based on the volume of formulation injected into the device. The injected volume may comprise a substantially fixed volume, for example within about +/−30% of an intended predetermined target volume. The volume of the reservoir can be sized with the release rate index so as to release the therapeutic agent for an extended time substantially greater than the treatment time of a corresponding bolus injection. The device can also be tuned to release the therapeutic agent based on the half life of the therapeutic agent in the eye. The device volume and release rate index comprise parameters that can be tuned together based on the volume of formulation injected and the half life of the therapeutic agent in the eye. The following equations can be used to determine therapeutic device parameters suitable for tuning the device. Rate=Vr(dCr/dt)=−D(PA/TL)Cr where Rate=Rate of release of therapeutic agent from device Cr=concentration of therapeutic agent in reservoir Vr=volume of reservoir D=Diffusion constant PA/TL=RRI P=porosity A=area T=tortuosity=F=channel parameter. […]
These concentration profiles were determined with modeling and calculations as described herein. […]

[5] = Calculations of Lucentis concentrations in the vitreous, monkey model (bolus injections and device Simulations 1-5); conditions: parameter applied in Simulations 1-5 (column = simulation)
From the text: A model can be derived to describe the release rate as a function of time by relating the change of concentration in the reservoir to the release rate described above. This model assumes a solution of therapeutic agent where the concentration in the reservoir is uniform. In addition, the concentration in the receiving fluid or vitreous is considered negligible (cV=0). Solving the differential equation and rearrangement yields the following equations describing the concentration in the reservoir as a function of time, t, and volume of the reservoir, VR, for release of a therapeutic agent from a solution in a reservoir though a porous structure. cR=cR0exp((−DPA/FLVR)t) and Cumulative Release=1−cR/cR0
A bolus injection into the vitreous may be modeled as a single exponential with rate constant, k=0.693/half-life and a cmax=dose/Vv where Vv is the vitreous volume. […] The vitreous volume is approximately 1.5 mL for the rabbit and monkey and 4.5 mL for the human eye. […] This concentration decays to a vitreous concentration of 0.1 ug/mL after about a month.
For devices with extended release, the concentration in the vitreous changes slowly with time. […]
The first column used the measured Cmax (Gaudreault et al.) while the second used a calculated Cmax based on the dose and volume of the vitreous.

[6] = test system: retinal thickness / lesion size in wet AMD; assay: Low dose Lucentis MIC study in wet AMD patients with OCT imaging (Example 18); type: in vivo, human
From the text: OCT (Optical Coherence Tomography) imaging was used to assess the condition of the region of the macula at the back surface of the treated eye. The OCT technique relies on the measurement of certain properties of light (e.g. echo time, intensity of reflection) that has been directed at the area of study and can measure very small amounts of reflected light. Because these cellular features are essentially transparent it is possible to use OCT methodology to generate three dimensional representations of the area.
The regions of interest were analyzed with a two dimensional representation of the cross section of the retinal wall at one longitudinal scan location of the OCT image. In these “OCT scan” images is it possible to interrogate very local areas of interest more specifically. The OCT scans were carefully selected to directly compare the thickness and anatomical structure of specific sites within a lesion, pre and post treatment, for the purpose of assessing the effect of injected drug including a reduction in sub-retinal fluid.
The OCT images were measured the day after injection and at 2-3 days post injection.
Further studies can be conducted by one or ordinary skill in the based on the teachings described herein to determine empirically the MIC for a sustained release device and cumulative effect of the drug over the time of release.

## ranibizumab [Lucentis]
[1]
  half-life in the vitreous: two to four
[1]; listed as ranibizumab
  half-life in the vitreous: approximately 3 days
[2]
  development of Grade IV CNV lesions: completely inhibited
[3]
  half-life in the vitreous: ~220 h
[4]
  Rate constant, k: 0.077 day⁻¹
[5]
  Rate constant, k: 0.264 day⁻¹
[6]; decrease in size of the lesion on OCT after low dose bolus, patient # in r2, dose in r4
  Treatment Effect Observed?: Yes
[6]; human patients, wet AMD
  MIC for a sustained release device: ≤ 1 ug per ml
